Results from US20260275319A1, “ARCHAEAL PEPTIDE RECOMBINASE – A NOVEL PEPTIDE LIGATING ENZYME” (MAX-PLANCK-GESELLSCHAFT ZUR FÖRDERUNG DER WISSENSCHAFTEN …, priority 2019, published 2026).
Values joined by “and” are separate entries in the source; they are usually repeats but may differ in a detail not shown here. Equal entries are not always repeated. Where two headings read alike, the source gives them in different places.

Tests used:
[1] = test system: (15)KDPGA(10) and PGA(10F) substrates; conditions: FIG. 14
Description: Specifically, 15 μM of (15)KDPGA(10)(SEQ ID NO: 419) and 15 μM of fluorophore-coupled PGA(10F)(SEQ ID NO: 374) substrates were incubated optimized M. jannaschii Adriase buffer (20 mM MES-NaOH pH 5.8, 150 mM NaCl, 100 mM KCl, 5 mM TCEP-HCl) for 8 min at 80° C. with either various Adriase concentrations. The assay was performed with either 7 nM, 21 nM, 62 nM, 185 nM, 556 nM, 1666 nM, 5000 nM or 15000 nM N-terminally modified Adriase (N-His, SEQ ID NO: 450) or 0 nM, 7 nM, 21 nM or 62 nM unmodified Adriase (SEQ ID NO: 385) and stopped by addition of 2% SDS. Samples were then separated on 12% polyacrylamide gels (Thermo) and fluorescent products visualized by UV light.

[2] = test system: (15)KDPGA(10) and PGA(10F) substrates; conditions: 100 nM enzyme, 15 μM substrates, 8 min, 85° C. (M. jannaschii variants) or 50° C. (M. mazei)
Description: In a second set of experiments, the ligase activity of Adriase variants was tested with (15)KDPGA(10)(SEQ ID NO: 419) and PGA(10F)(SEQ ID NO:414) substrates. […] Furthermore, M. mazei Adriase (SEQ ID NO: 380) was tested for ligase activity with the same M. jannaschii peptide substrates to assess whether variety within the recognition motif is tolerated. The read out for Adriase activity was the detection of fluorescently labeled ligation product (10)KDPGA(10F)(SEQ ID NO: 418).
The reaction was performed in optimized M. jannaschii Adriase buffer (20 mM MES-NaOH pH 5.8, 150 mM NaCl, 100 mM KCl, 5 mM TCEP-HCl) for 8 min at 85° C. when M. jannaschii derived Adriase variants were used and at 50° C. in optimized M. mazei Adriase buffer (50 mM acetic acid, 50 mM MES, 50 mM HEPES, 100 mM NaCl, 50 mM KCl, 5 mM TCEP, pH 7.0) when M. mazei Adriase was used and stopped by addition of 2% SDS. Samples were then separated on 12% polyacrylamide gels (Thermo) and fluorescent products visualized by UV light.

[3] = target: M. jannaschii MtrA^Δ194-245 (Methanocaldococcus jannaschii, UniProt Q58261); conditions: 1:1 molar mixture, 200 μM, Superdex S200, light scattering
M. jannaschii MtrA^Δ194-245, sequence (Q58261 1-189, stated change not applied): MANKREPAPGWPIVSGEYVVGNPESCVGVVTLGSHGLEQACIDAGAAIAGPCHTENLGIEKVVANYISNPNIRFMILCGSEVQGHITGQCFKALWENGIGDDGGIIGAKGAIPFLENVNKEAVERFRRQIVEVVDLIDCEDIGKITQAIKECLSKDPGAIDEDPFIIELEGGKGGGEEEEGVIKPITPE
Description: Data analysis was carried out with ASTRA v7.3.0.18 software (Wyatt).
For this purpose, size exclusion chromatography using 50 μl 200 μM M. jannaschii Adriase^ΔOB (SEQ ID NO: 132), M. jannaschii MtrA^Δ194-245 (SEQ ID NO:420) or a 1:1 molar mixture of the Adriase-MtrA pair was analyzed using a Superdex S200 10/300 GL gel size-exclusion column (20 mM HEPES-NaOH pH 7.5, 50 mM NaCl, 100 mM KCl) coupled to a miniDAWN Tristar Laser photometer (Wyatt).
To investigate, whether the OB fold alone is sufficient to bind Adriase in the above experimental set-up, we repeated the same analysis using M. jannaschii Adriase^ΔNTN (SEQ ID NO: 519). Specifically, size exclusion chromatography using 50 μl 200 μM M. jannaschii Adriase^ΔNTN (SEQ ID NO: 519), M. jannaschii MtrA^Δ194-245 (SEQ ID NO:420) or a 1:1 molar mixture of the Adriase-MtrA pair was analyzed using a Superdex S200 10/300 GL gel size-exclusion column (20 mM HEPES-NaOH pH 7.5, 50 mM NaCl, 100 mM KCl) coupled to a miniDAWN Tristar Laser photometer (Wyatt).

[4] = test system: Ub-(5)KDPGA(15)-Strep and PGA(10); assay: Test for hydrolase activity with protein substrate
Description: To investigate, whether this characteristic also holds true with protein substrates, the above experiment was repeated with Ub-(5)KDPGA(15)-Strep substrate (SEQ ID NO: 522). Specifically, 25 μM Ub-(5)KDPGA(15)-Strep and 25 μM PGA(10)(SEQ ID NO: 454) were incubated with either 25 nM or 25 μM M. mazei Adriase (SEQ ID NO: 380) in optimized buffer (50 mM acetic acid, 50 mM MES, 50 mM HEPES, 100 mM NaCl, 50 mM KCl, 5 mM TCEP, pH 7.0) at 50° C. After 140 s, 320 s, 575 s, 1002 s, 30 min or 90 min, aliquots were removed and mixed with 2% SDS to stop the reaction.

[5] = test system: Ub-(5)KDPGA(10) and PGA(10)-sdAb/CyP/GST; assay: Ligation of unrelated protein substrates (sdAb, CyP, GST); format: biochemical, M. mazei; conditions: 0.9 μM enzyme, 3.7 μM substrates, 37° C., 10 min
[6] = test system: Ub-(5)KDPGA(15) and PGA(15)-Ub; assay: Comparison with Sortase: Adriase-catalyzed protein-protein ligation
Description: (§1) (SEQ ID NO: 536) and GGG-Ub (SEQ ID NO: 666) were recorded. The Adriase assays were conducted with 3.13 μM and 100 μM substrate concentration and 0.0025 molar equivalents Adriase (SEQ ID NO: 380) in reaction buffer (50 mM acetic acid, 50 mM MES, 50 mM HEPES, 100 mM NaCl, 50 mM KCl, 5 mM TCEP, pH 7.0) at 50° C. The SrtA5* and SrtA assays were conducted with 3.13 μM and 100 μM substrate concentration and either 1 or 0.1 molar equivalents SrtA5* or SrtA (SEQ ID NO: 535 and 662) in Sortase buffer (50 mM Tris-HCl pH 7.5, 150 mM NaCl, 10 mM CaCl2) at 37° C. At various time points (0 s, 28 s, 55 s, 88 s, 126 s, 171 s, 225 s, 295 s, 393 s, 554 s, 1125 s, 1670 s and 2250 s), an aliquot of the reaction was mixed with 2% SDS. Samples were then separated on 12% polyacrylamide gels (Thermo) and stained with Coomassie blue. The band intensities of educt and product bands were quantified using ImageJ v1.52a, assuming that all ubiquitin molecules bind the coomassie dye in a similar manner. The results were used to plot the time courses for each experiment.

[7] = test system: (5)KDPGA(10F) and PGA(10) substrates; assay: M. mazei Adriase peptide-peptide ligation time courses and Michaelis-Menten plot; format: biochemical; conditions: 50° C.
Description: The band intensity of the respective fluorescently labeled PGA(10F) peptides (SEQ ID NO: 455), which were released by the ligation reactions were quantified using ImageJ v1.50i and subtracted from background signal in control reactions without PGA(10) peptides.

[8] = test system: Ub-(5)KDPGA(15) and PGA(15)-Ub substrates; assay: M. mazei Adriase protein-protein ligation kinetics
Description: Specifically, different concentrations (0.39 μM, 0.78 μM, 1.56 μM, 3.13 μM, 6.25 μM, 12.5, 25, 50 or 100 μM; three independent experiments per concentration) of Ub-(5)KDPGA(15)(SEQ ID NO: 520) and PGA(15)-Ub (SEQ ID NO: 521) substrates were incubated with 0.0025 molar equivalents of M. mazei Adriase (SEQ ID NO: 380) in reaction buffer (50 mM acetic acid, 50 mM MES, 50 mM HEPES, 100 mM NaCl, 50 mM KCl, 5 mM TCEP, pH 7.0) at 50° C. At various time points (0 s, 28 s, 55 s, 88 s, 126 s, 171 s, 225 s, 295 s, 393 s, 554 s, 1125 s, 1670 s and 2250 s), an aliquot of the reaction was mixed with 2% SDS. Samples were then separated on 12% polyacrylamide gels (Thermo) and stained with Coomassie blue (FIG. 21A). The band intensities of educt and product bands were quantified using ImageJ v1.52a, assuming that all ubiquitin molecules bind the coomassie dye in a similar manner. The results were used to plot the time courses for each experiment (FIG. 21B).
the data fit for each time course allowed the determination of the maximum rate parameter for each concentration. These maximum rates were then used in a Michaelis-Menten plot (FIG. 21C) to approximate kinetic measures.

[9] = test system: LPETG (primary) and GGG (secondary) substrates; conditions: cited from earlier work
[10] = test system: Ub-GGSLPETGGGHHHHHH and GGG-Ub; assay: Comparison with Sortase: SrtA / SrtA5* catalyzed protein-protein ligation; conditions: 3.13 μM each substrate, enzyme:substrate ratio 1:1, 37° C.
Description: as §1

[11] = target: LPETG (primary) and GGG (secondary) substrates (Staphylococcus aureus, UniProt Q2FV99); conditions: Frankel (2005); cited from earlier work
LPETG (primary) and GGG (secondary) substrates (Staphylococcus aureus, UniProt Q2FV99), sequence (Q2FV99 60-206): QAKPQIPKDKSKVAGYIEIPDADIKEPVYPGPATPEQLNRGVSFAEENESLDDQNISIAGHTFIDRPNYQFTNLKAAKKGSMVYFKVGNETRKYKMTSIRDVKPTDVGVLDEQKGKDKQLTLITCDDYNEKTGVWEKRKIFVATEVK

B1: M. jannaschii Adriase: Methanocaldococcus jannaschii Adriase (MJ_0548) with C-terminal His6-tag (protein)
chain: SLIICYYGKNGAVIGGDRRQIFFRGSEENRKILEEKLYSGEIKSEEELYKLAEKLNIKIIIEDDREKVRKISDSVVCGEVRSLGIDAKRRRVYATKGKCAIVDILNDTVTNQTIKEGFGIVVLGNRFLKKKAEEELKRTAKLFPMMPIQQIEDAIKEIFEKLKWHPTVSKEYDIYSVNKYEKNFEEVIKKDIESLFKYREQLRKQLIDFGKVMSIVNKIVKNGEIGVIKDGKLHLYDDYIAIDKIDPNPKVFKVVDVEGNFKDGDIVVIENGDMKIKGTNEKVTTKYIIIHKGSHHHHHH
modifications: C-terminal His6-tag; M. jannaschii Adriase with C-terminal His-tag
[1]
  rate of product generation compared to N-terminally modified Adriase: ~ 200 ×

B2: M. jannaschii Adriase^S1A (protein)
chain: ALIICYYGKNGAVIGGDRRQIFFRGSEENRKILEEKLYSGEIKSEEELYKLAEKLNIKIIIEDDREKVRKISDSVVCGEVRSLGIDAKRRRVYATKGKCAIVDILNDTVTNQTIKEGFGIVVLGNRFLKKKAEEELKRTAKLFPMMPIQQIEDAIKEIFEKLKWHPTVSKEYDIYSVNKYEKNFEEVIKKDIESLFKYREQLRKQLIDFGKVMSIVNKIVKNGEIGVIKDGKLHLYDDYIAIDKIDPNPKVFKVVDVEGNFKDGDIVVIENGDMKIKGTNEKVTTKYIIIHKGSHHHHHH
modifications: C-terminal His-tag; M. jannaschii Adriase S1A mutant with C-terminal His-tag
[2]
  ligase activity (fluorescent ligation product): no ligation product is observed
[3]
  complex formation with MtrA: form a heterodimer

B3: Adriase^ΔOB S1A (protein)
chain: ALIICYYGKNGAVIGGDRRQIFFRGSEENRKILEEKLYSGEIKSEEELYKLAEKLNIKIIIEDDREKVRKISDSVVCGEVRSLGIDAKRRRVYATKGKCAIVDILNDTVTNQTIKEGFGIVVLGNRFLKKKAEEELKRTAKLFPMMPIQQIEDAIKEIFEKLKWHPTVSKEYDIYSVNKYEKNFEEVIKKDIESLFKYREQGSHHHHHH
[3]
  complex formation with MtrA: decreased affinity

B4: Adriase^ΔOB: M. jannaschii Adriase without OB-like domain (Δ203-293), C-terminal His6-tag (protein)
chain: SLIICYYGKNGAVIGGDRRQIFFRGSEENRKILEEKLYSGEIKSEEELYKLAEKLNIKIIIEDDREKVRKISDSVVCGEVRSLGIDAKRRRVYATKGKCAIVDILNDTVTNQTIKEGFGIVVLGNRFLKKKAEEELKRTAKLFPMMPIQQIEDAIKEIFEKLKWHPTVSKEYDIYSVNKYEKNFEEVIKKDIESLFKYREQGSHHHHHH
modifications: C-terminal His6-tag; M. jannaschii Adriase without OB, with C-terminal His-tag
[2]
  ligase activity (fluorescent ligation product): still catalytically active

B5: M. mazei Adriase: Methanosarcina mazei Adriase (MM_2909), archaeal peptide recombinase, C-terminal His6-tag; Strep-, Myc-, HA-tagged versions used as pulldown bait (protein)
chain: TLVIAFIGKNGAVMAGDMREITFEGEKPDREKLEKELYSGSIVTDEEMQKKAEEFGVKITVADCKEKVSERNGVLVGEVSSAEGGVVKKRRLYASAGNFAIAELINTEMTLTSQGKGSNFIAFGNEFTKQVANKCFKDNWTKKSNLQDAVKILILCMETVARKTASVSKQFMIVQTASNADVLKVVEKDRNCGSHHHHHH
modifications: C-terminal His6-tag; M. mazei Adriase with C-terminal His-tag
notes: Methanosarcina mazei Adriase (MM_2909), archaeal peptide recombinase, C-terminal His6-tag; Strep-, Myc-, HA-tagged versions used as pulldown bait
[4]; enzyme:substrate 1:1000 (1×), 30 minutes
  product formation: ~ 50%
[4]; prolonged incubation (90 min), 1000× increased Adriase concentration
  amount of ligation product: ~ 50%
[5]
  ligation of protein pairs: efficiently ligates all three protein pairs
[6]; 3.13 μM each substrate, enzyme:substrate ratio 1:400
  substrates ligated (on a molar basis): ~ 50%
[6]; 100 μM substrates
  yield compared to Sortase: ~ 1.7 ×
[6]; 100 μM substrates, Adriase 0.0025 molar equivalents, 50° C., SrtA5* 37° C.
  ligase activity / ligation rate compared to SrtA5*: ~ 40 × and > 40 ×
[6]; 100 μM substrates, Adriase 0.0025 molar equivalents, 50° C., SrtA 37° C.
  ligase activity / ligation rate compared to SrtA: ~ 4000 × and > 4000 ×
[6]; compared to ~30% in the Sortase reactions
  ligation yield: ~ 50%
[7]; 0.001 molar equivalents enzyme, pH 7.0, Michaelis-Menten model
  maximum rate: ~ 2.25 ligations per enzyme and second
[7]; each substrate, pH 7.0
  substrate concentration at half maximal reaction speed: ~ 9 μM
[8]; 25 μM substrate concentration
  ligation rate coefficient: 0.74 ± 0.05 s⁻¹
[8]; 50 μM substrate concentration
  ligation rate coefficient: 0.88 ± 0.07 s⁻¹
[8]; 100 μM substrate concentration
  ligation rate coefficient: 0.90 ± 0.14 s⁻¹
[8]; each substrate, equimolar, protein-protein ligation, 50° C., pH 7.0
  substrate concentration at half-maximum rate: 2.2 µM
[8]; protein-protein ligation, 0.0025 molar equivalents enzyme, 50° C., pH 7.0
  maximum rate: 0.92 ligations per enzyme and second
[2]
  ligase activity (fluorescent ligation product): showed activity

B6: 428-57: M. jannaschii Adriase without the insertion element that distinguishes Adriase from proteasome subunits, C-terminal His6 (protein)
chain: SLIICYYGKNGAVIGGDRRQIFFRGSGKIIIEDDREKVRKISDSVVCGEVRSLGIDAKRRRVYATKGKCAIVDILNDTVTNQTIKEGFGIVVLGNRFLKKKAEEELKRTAKLFPMMPIQQIEDAIKEIFEKLKWHPTVSKEYDIYSVNKYEKNFEEVIKKDIESLFKYREQLRKQLIDFGKVMSIVNKIVKNGEIGVIKDGKLHLYDDYIAIDKIDPNPKVFKVVDVEGNFKDGDIVVIENGDMKIKGTNEKVTTKYIIIHKGSHHHHHH
modifications: C-terminal His6; M. jannaschii Adriase 28-57, C-terminal His6
[2]
  ligase activity (fluorescent ligation product): abolishes ligase activity

B7: SrtA5* (protein, listed as Staphylococcus aureus)
chain: MQAKPQIPKDKSKVAGYIEIPDADIKEPVYPGPATREQLNRGVSFAEENESLDDQNISIAGHTFIDRPNYQFTNLKAAKKGSMVYFKVGNETRKYKMTSIRNVKPTAVEVLDEQKGKDKQLTLITCDDYNEETGVWETRKIFVATEVKLEHHHHHH
modifications: C-terminal His-tag; SrtA5* delta 1-59 with C-terminal His-tag
[9]; Chen (2011)
  increased rates compared to the wild type enzyme: up to 120 ×
[9]; Chen (2011), read-out: KM GGG
  Km: 4700 µM
[9]; Chen (2011), read-out: KM LPETG
  Km: 170 µM
[10]
  ligase activity at low substrate concentrations: only spurious ligase activity

B8: SrtA: Staphylococcus aureus Sortase A without N-terminal membrane anchor (residues 1-59), N-terminal His6-tag (protein, listed as Staphylococcus aureus)
chain: MRGSHHHHHHGSQAKPQIPKDKSKVAGYIEIPDADIKEPVYPGPATPEQLNRGVSFAEENESLDDQNISIAGHTFIDRPNYQFTNLKAAKKGSMVYFKVGNETRKYKMTSIRDVKPTDVEVLDEQKGKDKQLTLITCDDYNEKTGVWEKRKIFVATEVK
modifications: N-terminal His6-tag; His6-SrtA 1-59
notes: Staphylococcus aureus Sortase A without N-terminal membrane anchor (residues 1-59), N-terminal His6-tag
[9]; primary substrate used in excess, read-out: KM for the secondary substrate
  Km: 196 µM
[9]; secondary substrate used in excess, read-out: KM for the primary substrate
  Km: 7330 µM
[11]
  Kcat Ligation/Kcat Hydrolysis: ≈ 3.3
[10]
  ligase activity at low substrate concentrations: only spurious ligase activity

B9: M. jannaschii Adriase^ΔNTN (protein, listed as Methanosarcina mazei)
chain: MEQLRKQLIDFGKVMSIVNKIVKNGEIGVIKDGKLHLYDDYIAIDKIDPNPKVFKVVDVEGNFKDGDIVVIENGDMKIKGTNEKVTTKYIIIHKGSHHHHHH
modifications: Methanosarcina mazei Go1; Adriase NTN with C-terminal His-tag
[3]
  complex formation with MtrA: no complex is formed
